The supplement of paper PMC9170038

System: MS2 coat protein
Experiment: apparent KD of MS2 coat protein; designed switch direction (-1 OFF switch, 1 ON switch): -1; higher = weaker reporter binding
Outline: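 Designed RNA switches sharing common flanks were transcribed on Illumina chips by stalled E. coli RNA polymerase. They were titrated with SNAP-549-labelled MS2 coat protein, from 0.7 or 1.5 nM doubling to 3 µM, in Tris-HCl pH 7.5 buffer with KCl, MgCl2, BSA, DTT, tRNA and Tween-20. Titrations ran without input, with 200 uM small-molecule ligand, or with an oligonucleotide input. The apparent KD of each design is the median over its clusters, after curve-fitting of normalised cluster fluorescence.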

[1] = Eterna round: R95, input ligand: FMN 200 uM
[2] = Eterna round: R95, input ligand: microRNA oligo, concentration not stated
[3] = Eterna round: R95, input ligand: none
[4] = input ligand: microRNA oligo, concentration not stated

Sequence	apparent KD of MS2 coat protein [1] [nM]	apparent KD of MS2 coat protein [2] [nM]	apparent KD of MS2 coat protein [3] [nM]	apparent KD of MS2 coat protein (input ligand: FMN 200 uM) [nM]	apparent KD of MS2 coat protein [4] [nM]	apparent KD of MS2 coat protein (input ligand: none) [nM]
CGUAUCUUUCACGUGAGUAGUGGGUGCAACAGGUGGGUUACAUGAGGAUCACCCAUGUACUCACUUGCUCGUCUUAU [Grok-var2-06] (puzzle: Sensor v3, turn-off variant 2)	38	23.4	34.3			
AAGAAGAUCAAAGGAUAUGGAGCUGAAACGGCGCUAGAAGGUUGUCUAGUGUAACAUGAGGAUCACCCAUGUAGGGACCUCUAA [AK ExNG1-V2-2] (Eterna round: R96, puzzle: Exclusion NG 1)				562	385	644
CAAGCUUUUCCAUUUCUAUACAUGAGGAUCACCCAUGUCCCGAGUUGGGUGAGCACUCUGGUCGUCGUUUCUACCAA [Envele] (Eterna round: R96, puzzle: Sensor v2, turn-off variant)				432	181	278
AAGAAACAUGAGGAUCACCCAUGUGAGGAUAUGUAAAGAAAAGAAAAAGAAAAGAAAAACAGAAGGCACAAAGA [JR_Exclusion1_Sub001] (puzzle: Exclusion 1)	38.7	43.6	34			
CUCUUGUCAGGAUAUCAACGCCGCCCACACGGGCGGCGAAAUGAGAAGGGACAUGAGGAUCACCCAUGUUAAAA [Orsoesarqu] (puzzle: Exclusion 4)	20.3	133	212			
CUGGUCCGAGGAUAUAUUAAGUGAUACAUGAGGAUCACCCAUGUAAUUUGAUGGAUAUAAAUAGAAGGCGGACUAG [Mat - Exclusion 5 - JL mod - D43] (puzzle: Exclusion 5)	59.8	37.1	43.8			
GGAUAUAAGGAAGGAUAUGAGCGCAACUGACGAUCAGAAGGUCCACAUGAGGAUCACCCAUGUGAUCUAUCAAUAUUAUACAUG [Prohibition 94 - Jieux - Exclusion NG 1] (Eterna round: R96, puzzle: Exclusion NG 1)				264	52.9	115
AGAUGUAGAUACCGAUCCUACAUGAGGAUCACCCAUGUAGCUAGACGUGCACGCGUAGCUCGUCAGACUACCAGAAG [salish99_TOv1_r3_085] (Eterna round: R96, puzzle: Sensor v3, turn-off variant 1)				461	253	449
AUAUAGAUAGUCAGGAUAUUCUAGUGAUAACAGUAGGAGAAGGGACAUGAGGAUCACCCAUGUAGAUAGUGCAC [Brourd's EX4 #15] (Eterna round: R97, puzzle: Brourd's mod of Exclusion 4)				42.9		27
GGCAGACAUGAGGAUCACCCAUGUCAGGAUAUGCGGCGAAGUACAGUUAGUGCAUUUGGUAGAAGGGACAAGGA [Eternabot (L1) Solution 100] (Eterna round: R97, puzzle: Exclusion 1)				29.8		32.5
UUUAAUUUUUUUUUUUUACAAGCUUUUUGCUCGUCUUAUACAUGAGGAUCACCCAUGUGAAUGGAAGAUAAAUUAUC [JMF 8] (puzzle: Sensor v3, turn-off variant 2)	17.8	16.3	18.6			
ACAUGAGGAUCACCCAUGUCCGGCUGGUCCGUCUCGGCUGUCGAGGAUAUGGCUCGGUGUCCGCGCUAGAAGGCGGGAGCCGGA [Aenatbe mod 76] (Eterna round: R96, puzzle: Exclusion NG 3)				31.6	27.2	45.4
GGCGCCUCAGGAUAUCAGUCUGGAUCAGAAAAGAUCCUGACUGAGAAGGGACAUGAGGAUCACCCAUGUUCGCC [Mat - Exclusion 4 - Eli Mod - D52] (Eterna round: R97, puzzle: Exclusion 4)				17.3		18.4
AGAAAUGCCCAUGGCCGCAAGCCUUUUGCUUGUCUUACCACAUGAGGAUCACCCAUGUGACAUGGGCUCCUUAUAAU [Verileve] (puzzle: Sensor v3, turn-off variant 2)	14	9.2	12.5			
GUGUAGUCAGGAUAUACAUAGGAAGAGAAUAUAAUAUAAGUACAUGAGGAUCACCCAUGUAGAAGGGACAGUGU [Excluse me!! 8 - Jieux - Exclusion 2] (puzzle: Exclusion 2)		29.4				
AUAAUGUCAGGAUAUCAGUCGACUAGCGAUAGCUAGUCGACUGAGAAGGGACAUGAGGAUCACCCAUGUGUUUC [E4/14-A4] (Eterna round: R97, puzzle: Exclusion 4)				2.73		170
UAAAAGGUAGGAUAUACGAAAAAAAAGGGUAGAAAAAAAACACAUGAGGAUCACCCAUGUAGAAGGACCAAAAG [salish99_ex2_r3_048] (puzzle: Exclusion 2)	64.3	29.8	30.1			
CCUAUGUGAGGAUAUCACUGGUCUUCUCACUGGAUGAUUAGUGAGAAGGCACAUGAGGAUCACCCAUGUCGGUG [Ex4 - 3 - 51] (puzzle: Exclusion 4)		524				
GAAAAGUGAGGAUAUGGUAAAAGAAGAAGAAGAAGAAAACUCCAGAAGGCACAUGAGGAUCACCCAUGUGAAAG [salish99_ex4_r3_008] (puzzle: Exclusion 4)	17	17.1	16.5			
UACCUGUAGGUAGGAUAUCAUUGCGAUUAGCUAUGAGAAGGACCACAUGAGGAUCACCCAUGUCUACUCAGGAACCGAAAGGUC [Fiskers ExNg1 - 1] (Eterna round: R96, puzzle: Exclusion NG 1)				13	10.4	17.3
CUCCGGCGUGUAGGAUAUGGUUCCGUUUAGGUUCCAGAAGGACAUGAGGAUCACCCAUGUACAUGUCGUCGGUCGUCACCGGGC [salish99_ExNG1_r04_213] (Eterna round: R96, puzzle: Exclusion NG 1)				87.3	28.8	33.1
CAUCUGUGAGGAUAUGGUGAGUAGUGCCUGAGCGCUGCUCACCAGAAGGCACAUGAGGAUCACCCAUGUAUGAC [JL-ex4-2.01 denovo] (Eterna round: R96, puzzle: Exclusion 4)				319	46.3	70
AGCCACAGAGGAUAUACAUACAUCCAGUGGUUAAGAAUACUACAUGAGGAUCACCCAUGUAGAAGGCUGUGGCA [Omei Ex2 BD B11] (Eterna round: R97, puzzle: Exclusion 2)				108		22.4
AAGAAACAUGAGGAUCACCCAUGUGAGGAUAUGAGUAAGAAAAGAAAAGAAAGAAGAGUCAGAAGGCACAAAGG [salish99-ex1_r3_060] (puzzle: Exclusion 1)	49.5	35.4	41.5			
AUUUAAUUUAGCGAGAUCACAUGAGGAUCACCCAUGUAUAUAUAGGAUAUCAGCUCGUGUAGAGCUGAGAAGGAUAUAUACCGC [ExNG3/7-A3] (Eterna round: R96, puzzle: Exclusion NG 3)				108	72.5	88.1
AGCCAAGCAGGAUAUAUCCGGGAUAACAUGAGGAUCACCCAUGUGACCGCUUGAUAUCCUAUAGAAGGGCUUGGGA [Mod of ViennaUCT 24 - Jieux - Exclusion 5] (Eterna round: R97, puzzle: Exclusion 5)				54.8		24.9
GCUUGUAGAGGAUAUACGAGGGCCCGAGCGGAUAACACCGCACAUGAGGAUCACCCAUGUAGAAGGCUACCACC [Riquinza] (Eterna round: R96, puzzle: Exclusion 2)				331	19.1	27.9
UUUAAGGUAAUUAAGAUCACAUGAGGAUCACCCAUGUAUAUAUAGGAUAUCAGCUCGAUUAGAGCUGAGAAGGAUAUAUACAUA [ExNG3/6-C1] (Eterna round: R96, puzzle: Exclusion NG 3)				66.1	33.3	142
GUUGGAUGAGGAUAUCGAGGUUAGUACAUGAGGAUCACCCAUGUUAUCCAGGUGUCGGUUCGAGAAGGCAUUGGAC [LRO-Ex5-14] (puzzle: Exclusion 5)		32.9				
